As a reminder, the IC50 is the concentration needed to halve the response being measured. A word on the Kd: it is a measure of binding affinity in units of concentration. As a reminder, the koff is the first-order rate constant of dissociation. Lower therefore signals slow dissociation. The term kon denotes the rate constant with which the complex forms. A high value points to faster complex formation.

6 molecules from patent US20190077860A1 (EISAI R AND D MANAGEMENT, published 2019) can be followed below.

Assay [1] deals with T1, human EphA4 extracellular region-SEAP-His protein (human, UniProt P54764 20-547).
T1 construct: also called hEphA4-SEAP-His
T1 sequence (P54764 20-547): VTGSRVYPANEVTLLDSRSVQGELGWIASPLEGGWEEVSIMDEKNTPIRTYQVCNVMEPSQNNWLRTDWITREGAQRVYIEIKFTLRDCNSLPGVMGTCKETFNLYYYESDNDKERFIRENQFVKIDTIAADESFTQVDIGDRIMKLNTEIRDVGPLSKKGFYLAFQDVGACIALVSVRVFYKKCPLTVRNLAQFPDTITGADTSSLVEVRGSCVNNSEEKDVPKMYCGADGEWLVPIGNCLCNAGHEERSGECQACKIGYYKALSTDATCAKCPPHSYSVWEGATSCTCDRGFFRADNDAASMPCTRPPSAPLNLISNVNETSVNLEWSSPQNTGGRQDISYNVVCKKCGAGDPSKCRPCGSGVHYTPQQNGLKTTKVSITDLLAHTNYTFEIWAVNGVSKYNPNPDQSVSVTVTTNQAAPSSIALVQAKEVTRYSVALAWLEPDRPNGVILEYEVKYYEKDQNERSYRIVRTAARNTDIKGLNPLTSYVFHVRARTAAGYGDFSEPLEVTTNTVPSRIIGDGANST
The assay is described as follows: ELISA.

In assay [2] the target is T2, human EphA8 extracellular region-SEAP-His protein (human, UniProt P29322 28-542).
T2 construct: extracellular domain; also called hEphA8-SEAP-His
T2 sequence (looked up): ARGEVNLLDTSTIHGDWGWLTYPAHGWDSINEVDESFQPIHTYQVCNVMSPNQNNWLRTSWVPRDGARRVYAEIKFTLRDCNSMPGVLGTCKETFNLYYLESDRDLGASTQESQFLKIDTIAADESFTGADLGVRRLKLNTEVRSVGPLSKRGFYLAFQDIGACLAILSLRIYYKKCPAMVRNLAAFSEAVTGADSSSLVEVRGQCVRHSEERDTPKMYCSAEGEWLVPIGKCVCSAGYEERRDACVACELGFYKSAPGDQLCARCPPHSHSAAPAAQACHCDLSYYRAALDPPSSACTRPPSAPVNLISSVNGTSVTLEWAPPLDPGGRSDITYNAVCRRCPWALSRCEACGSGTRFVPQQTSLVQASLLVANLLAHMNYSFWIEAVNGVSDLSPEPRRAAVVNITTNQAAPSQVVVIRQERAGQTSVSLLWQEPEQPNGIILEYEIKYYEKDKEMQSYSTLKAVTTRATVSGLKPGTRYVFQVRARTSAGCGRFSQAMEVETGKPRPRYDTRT
The assay is described as follows: ELISA.

The target of assay [3] is T1, human EphA4 extracellular …. Kind of assay: competition ELISA, competitor human Ephrin A5-Fc. The method, boiled down: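 Anti-alkaline phosphatase-coated plates captured EphA4-SEAP-His (10 nM final), then antibody (0–3000 nM serial dilutions) and biotinylated Ephrin A5-Fc (0.7 nM final) were co-added for 1 h at room temperature. Bound ligand detected with HRP-streptavidin and TMBZ, stopped with 1N H₂SO₄, A450 read.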

The target is the same in assay [4]. The assay is described as follows: SPR, Ab captured. The method, boiled down:
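Antibodies captured (~30–60 RU) on a protein A chip, or for antibody A on immobilized rat anti-mouse IgG1, in HBS-EP. Human EphA4 extracellular region-SEAP-His at 0.6–50 nM injected in ascending order without regeneration, with 120 s association and 900 s dissociation. KD=kd/ka from 1:1 binding model fits.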
(In general: Surface plasmon resonance follows binding to a sensor surface in real time, without labels.)

B1: humanized antibody No. 154 (antibody, human IgG2)
heavy: QVQLVQSGSELKKPGASVKVSCKASGYTFTDYSMHWVRQAPGQGLEWMGWINTETGEPTYADDFKGRFVFSLDTSVSTAYLQISSLKAEDTAVYYCARIPLYYYGSRYWYFDVWGQGTTVTVSSASTKGPSVFPLAPSSRSTSESTAALGCLVKDYFPEPVTVSWNSGALTSGVHTFPAVLQSSGLYSLSSVVTVPSSNFGTQTYTCNVDHKPSNTKVDKTVERKSCVECPPCPAPPAAAPSVFLFPPKPKDTLMISRTPEVTCVVVDVSHEDPEVQFNWYVDGVEVHNAKTKPREEQFNSTFRVVSVLTVVHQDWLNGKEYKCKVSNKGLPAPIEKTISKTKGQPREPQVYTLPPSREEMTKNQVSLTCLVKGFYPSDIAVEWESNGQPENNYKTTPPMLDSDGSFFLYSKLTVDKSRWQQGNVFSCSVMHEALHNHYTQKSLSLSPG
light: DIQMTQSPSSLSASVGDRVTITCRASENIYRNLAWYQQKPGKAPKLLLYAATNLADGVPSRFSGSGSGTDYTLTISSLQSEDFATYYCQHFWGTPWTFGQGTKVEIKRTVAAPSVFIFPPSDEQLKSGTASVVCLLNNFYPREAKVQWKVDNALQSGNSQESVTEQDSKDSTYSLSSTLTLSKADYEKHKVYACEVTHQGLSSPVTKSFNRGEC
notes: human Ig kappa; also called L1-5/HK1
On to B1, for which the “A450 as % of hEphA4-SEAP-His” value in assay [1] turned out to be 100%. For the same molecule, in assay [2], the “A450 as % of hEphA4-SEAP-His” value turned out to be 5.5%. In addition, the IC50 in assay [3] worked out at 2.5 nM. In assay [4], this molecule came in with a Kd of 2.2 nM, an off-rate (koff) of roughly 0.00085 s⁻¹ and a kon of 390000 M⁻¹ s⁻¹.

B2: humanized antibody No. 159 (antibody, human IgG2)
heavy: QVQLVQSGSELKKPGASVKVSCKASGYTFTDYSMHWVRQAPGQGLKWMGWINTETGEPTYADDFKGRFVFSLDTSVSTAYLQISSLKAEDTAVYYCARIPLYYYGSRYWYFDVWGQGTTVTVSSASTKGPSVFPLAPSSRSTSESTAALGCLVKDYFPEPVTVSWNSGALTSGVHTFPAVLQSSGLYSLSSVVTVPSSNFGTQTYTCNVDHKPSNTKVDKTVERKSCVECPPCPAPPAAAPSVFLFPPKPKDTLMISRTPEVTCVVVDVSHEDPEVQFNWYVDGVEVHNAKTKPREEQFNSTFRVVSVLTVVHQDWLNGKEYKCKVSNKGLPAPIEKTISKTKGQPREPQVYTLPPSREEMTKNQVSLTCLVKGFYPSDIAVEWESNGQPENNYKTTPPMLDSDGSFFLYSKLTVDKSRWQQGNVFSCSVMHEALHNHYTQKSLSLSPG
light: DIQMTQSPSSLSASVGDRVTITCRASENIYRNLAWYQQKPGKAPQLLLYAATNLADGVPSRFSGSGSGTDYTLTISSLQPEDFATYYCQHFWGTPWTFGQGTKVEIKRTVAAPSVFIFPPSDEQLKSGTASVVCLLNNFYPREAKVQWKVDNALQSGNSQESVTEQDSKDSTYSLSSTLTLSKADYEKHKVYACEVTHQGLSSPVTKSFNRGEC
notes: human Ig kappa; also called L1-6/HK2
On to B2, for which, in assay [1], the “A450 as % of hEphA4-SEAP-His” value is 100%. The “A450 as % of hEphA4-SEAP-His” value in assay [2] is 5.5%. This molecule also registered an IC50 in assay [3] of 2.6 nM. In assay [4], this molecule came in with a Kd of 2 nM, a koff of 0.00061 s⁻¹ and a kon of 310000 M⁻¹ s⁻¹.

B3: humanized antibody No. 155 (antibody, human IgG2)
heavy: QIQLVQSGSELKKPGASVKVSCKASGYTFTDYSMHWVRQAPGQGLKWMGWINTETGEPTYADDFKGRFVFSLDTSVSTAYLQISSLKAEDTAVYYCARIPLYYYGSRYWYFDVWGQGTTVTVSSASTKGPSVFPLAPSSRSTSESTAALGCLVKDYFPEPVTVSWNSGALTSGVHTFPAVLQSSGLYSLSSVVTVPSSNFGTQTYTCNVDHKPSNTKVDKTVERKSCVECPPCPAPPAAAPSVFLFPPKPKDTLMISRTPEVTCVVVDVSHEDPEVQFNWYVDGVEVHNAKTKPREEQFNSTFRVVSVLTVVHQDWLNGKEYKCKVSNKGLPAPIEKTISKTKGQPREPQVYTLPPSREEMTKNQVSLTCLVKGFYPSDIAVEWESNGQPENNYKTTPPMLDSDGSFFLYSKLTVDKSRWQQGNVFSCSVMHEALHNHYTQKSLSLSPG
light: DIQMTQSPSSLSASVGDRVTITCRASENIYRNLAWYQQKPGKAPKLLLYAATNLADGVPSRFSGSGSGTDYTLTISSLQSEDFATYYCQHFWGTPWTFGQGTKVEIKRTVAAPSVFIFPPSDEQLKSGTASVVCLLNNFYPREAKVQWKVDNALQSGNSQESVTEQDSKDSTYSLSSTLTLSKADYEKHKVYACEVTHQGLSSPVTKSFNRGEC
notes: human Ig kappa; also called L1-5/HK4
Take B3: the “A450 as % of hEphA4-SEAP-His” value in assay [1] is 100%. Also, the “A450 as % of hEphA4-SEAP-His” value in assay [2] turned out to be 5.5%. In addition, the IC50 in assay [3] amounted to 2.4 nM. For the same molecule, in assay [4], the Kd was determined as 1.9 nM, the koff was found to be 0.00064 s⁻¹ and the kon is 330000 M⁻¹ s⁻¹.

B4: humanized antibody No. 158 (antibody, human IgG2)
heavy: QVQLVQSGSELKKPGASVKVSCKASGYTFTDYSMHWVRQAPGQGLKWMGWINTETGEPTYAQGFTGRFVFSLDTSVSTAYLQISSLKAEDTAVYYCARIPLYYYGSRYWYFDVWGQGTTVTVSSASTKGPSVFPLAPSSRSTSESTAALGCLVKDYFPEPVTVSWNSGALTSGVHTFPAVLQSSGLYSLSSVVTVPSSNFGTQTYTCNVDHKPSNTKVDKTVERKSCVECPPCPAPPAAAPSVFLFPPKPKDTLMISRTPEVTCVVVDVSHEDPEVQFNWYVDGVEVHNAKTKPREEQFNSTFRVVSVLTVVHQDWLNGKEYKCKVSNKGLPAPIEKTISKTKGQPREPQVYTLPPSREEMTKNQVSLTCLVKGFYPSDIAVEWESNGQPENNYKTTPPMLDSDGSFFLYSKLTVDKSRWQQGNVFSCSVMHEALHNHYTQKSLSLSPG
light: DIQMTQSPSSLSASVGDRVTITCRASENIYRNLAWYQQKPGKAPQLLLYAATNLADGVPSRFSGSGSGTDYTLTISSLQPEDFATYYCQHFWGTPWTFGQGTKVEIKRTVAAPSVFIFPPSDEQLKSGTASVVCLLNNFYPREAKVQWKVDNALQSGNSQESVTEQDSKDSTYSLSSTLTLSKADYEKHKVYACEVTHQGLSSPVTKSFNRGEC
notes: human Ig kappa; also called L1-6/HA2
Take B4: the “A450 as % of hEphA4-SEAP-His” value in assay [1] came out at 100%. Further, in assay [2], the “A450 as % of hEphA4-SEAP-His” value was found to be 6.4%. Further, the 50% inhibitory concentration (IC50) in assay [3] worked out at 2.8 nM. For the same molecule, in assay [4], the affinity, expressed as Kd, was 1.9 nM; the koff amounted to 0.00061 s⁻¹; the kon came to 310000 M⁻¹ s⁻¹.

B5: humanized antibody No. 156 (antibody, human IgG2)
heavy: QIQLVQSGSELKKPGASVKVSCKASGYTFTDYSMHWVRQAPGQGLKWMGWINTETGEPTYAQGFTGRFVFSLDTSVSTAYLQISSLKAEDTAVYYCARIPLYYYGSRYWYFDVWGQGTTVTVSSASTKGPSVFPLAPSSRSTSESTAALGCLVKDYFPEPVTVSWNSGALTSGVHTFPAVLQSSGLYSLSSVVTVPSSNFGTQTYTCNVDHKPSNTKVDKTVERKSCVECPPCPAPPAAAPSVFLFPPKPKDTLMISRTPEVTCVVVDVSHEDPEVQFNWYVDGVEVHNAKTKPREEQFNSTFRVVSVLTVVHQDWLNGKEYKCKVSNKGLPAPIEKTISKTKGQPREPQVYTLPPSREEMTKNQVSLTCLVKGFYPSDIAVEWESNGQPENNYKTTPPMLDSDGSFFLYSKLTVDKSRWQQGNVFSCSVMHEALHNHYTQKSLSLSPG
light: DIQMTQSPSSLSASVGDRVTITCRASENIYRNLAWYQQKPGKAPQLLLYAATNLADGVPSRFSGSGSGTDYTLTISSLQPEDFATYYCQHFWGTPWTFGQGTKVEIKRTVAAPSVFIFPPSDEQLKSGTASVVCLLNNFYPREAKVQWKVDNALQSGNSQESVTEQDSKDSTYSLSSTLTLSKADYEKHKVYACEVTHQGLSSPVTKSFNRGEC
notes: human Ig kappa; also called L1-6/HA4
Regarding B5, the “A450 as % of hEphA4-SEAP-His” value in assay [1] was 100%. Further, in assay [2], the “A450 as % of hEphA4-SEAP-His” value stood at 5.5%. Also, in assay [3], the IC50 was 2.5 nM. In assay [4], this molecule showed a Kd of 1.6 nM, a koff of 0.00056 s⁻¹ and a kon of 310000 M⁻¹ s⁻¹.

B6: humanized antibody No. 157 (antibody, human IgG2)
heavy: QVQLVQSGSELKKPGASVKVSCKASGYTFTDYSMHWVRQAPGQGLEWMGWINTETGEPTYAQGFTGRFVFSLDTSVSTAYLQISSLKAEDTAVYYCARIPLYYYGSRYWYFDVWGQGTTVTVSSASTKGPSVFPLAPSSRSTSESTAALGCLVKDYFPEPVTVSWNSGALTSGVHTFPAVLQSSGLYSLSSVVTVPSSNFGTQTYTCNVDHKPSNTKVDKTVERKSCVECPPCPAPPAAAPSVFLFPPKPKDTLMISRTPEVTCVVVDVSHEDPEVQFNWYVDGVEVHNAKTKPREEQFNSTFRVVSVLTVVHQDWLNGKEYKCKVSNKGLPAPIEKTISKTKGQPREPQVYTLPPSREEMTKNQVSLTCLVKGFYPSDIAVEWESNGQPENNYKTTPPMLDSDGSFFLYSKLTVDKSRWQQGNVFSCSVMHEALHNHYTQKSLSLSPG
light: DIQMTQSPSSLSASVGDRVTITCRASENIYRNLAWYQQKPGKAPQLLLYAATNLADGVPSRFSGSGSGTDYTLTISSLQPEDFATYYCQHFWGTPWTFGQGTKVEIKRTVAAPSVFIFPPSDEQLKSGTASVVCLLNNFYPREAKVQWKVDNALQSGNSQESVTEQDSKDSTYSLSSTLTLSKADYEKHKVYACEVTHQGLSSPVTKSFNRGEC
notes: human Ig kappa; also called L1-6/HA1
On to B6, for which, in assay [1], the “A450 as % of hEphA4-SEAP-His” value was 100%. Moreover, the “A450 as % of hEphA4-SEAP-His” value in assay [2] was 6%. For the same molecule, the IC50 in assay [3] was found to be 2.6 nM. Further, in assay [4], binding was characterised by a dissociation constant (Kd) of 2 nM, the koff was 0.00068 s⁻¹ and the on-rate constant (kon) came out at 350000 M⁻¹ s⁻¹.
